Assay [1] concerns the target HLA-B0702 (human). As to the kind of experiment: competition vs 125I probe peptide, purified HLA. As to conditions: remark: other sources report otherwise.
Assay [2] concerns the target HLA-B0702 (human). As to conditions: remark: other sources report otherwise.
The target in assay [3] is HLA-B0801 (human). Nature of the assay: competition with 125I-labelled probe peptide, purified HLA.
In assay [4] the target is HLA-B0702 (human). Nature of the assay: competition with 125I-labelled probe peptide on purified soluble HLA. As to conditions: remark: other sources report otherwise.
Assay [5] deals with HLA-A0301 (human). As to the kind of experiment: competition vs 125I-labelled probe peptide, purified soluble HLA.
Assay [6] addresses HLA-DRB1*0101 (human). As to the kind of experiment: competition with 125I-labelled probe peptide on purified HLA-DR. As to conditions: remark: other sources report otherwise.
The target of assay [7] is HLA-A0301 (human).
For the next assay, the target named is HLA-A*0301 (human). Nature of the assay: competition with 125I-labelled probe peptide on purified soluble HLA.
The next assay has as its target HLA-A0101 (human). As to the kind of experiment: competition with 125I-labelled probe peptide, purified HLA.
Another assay deals with HLA-B*0702 (human). As to the kind of experiment: competition with 125I-labeled probe peptide, purified HLA.
Assay [8] addresses HLA-B0801 (human). As to the kind of experiment: competition vs 125I probe peptide, purified HLA. As to conditions: remark: other sources report otherwise.
The target in another assay is HLA-DRB1*0301 (human). As to the kind of experiment: competition vs 125I-labelled probe peptide, purified HLA-DR.
Assay [9] concerns the target HLA-B0702 (human). Nature of the assay: competition vs 125I-labelled probe peptide, purified soluble HLA.
Assay [10] deals with HLA-DRB1*0101 (human). Nature of the assay: competition vs 125I-labelled probe peptide, purified HLA-DR.
A further assay addresses HLA-A*0101 (human). As to the kind of experiment: competition with 125I-labelled probe peptide on purified HLA-A*0101.
Where [11] appears, read: remark: other sources report otherwise.

Like-named read-outs stand apart in the source and are kept apart here.

By Ki is commonly meant the dissociation constant of the complex between target and ligand, obtained from inhibition or displacement. High values mean weaker binding, low ones tighter binding. Take QPRGRRQPI (modifications not checked): the Ki was 1 nM in the assay with HLA-B0702 (human) [1], < 1000 nM with HLA-B0702 (human) [2], 3 nM with HLA-B0801 (human) [3] (setting [11]) and 1 nM in the assay with HLA-B0702 (human) [4]. With YLFNWAVRTK (modifications not checked), the inhibition constant Ki with HLA-A0301 (human) [5] was < 1000 nM.

As usually defined, the IC50 is the concentration that gives 50% inhibition. Molecule SYTWTGALITPCAAE (modifications not checked) registered an IC50 in the assay with HLA-DRB1*0101 (human) [6] of 5.63 nM. As to RVFTEAMTR (modifications not checked), the inhibition constant Ki in the assay with HLA-A0301 (human) [7] is < 1000 nM. Moreover, the IC50 in the assay with HLA-A*0301 (human) was 45 nM. LHGPTPLLY (modifications not checked) gave an inhibition constant (Ki) with HLA-A0101 (human) of 20000 nM. In the assay with HLA-B*0702 (human) (setting [11]), APLGGAARAL (modifications not checked) came in with a half-inhibitory concentration (IC50) of 0.8 nM. Moreover, the inhibition constant Ki with HLA-B0702 (human) [1] and with HLA-B0702 (human) [4] was 1 nM in each case. In the assay with HLA-B0801 (human) [3], YLKGSSGGPL (modifications not checked) gave a Ki of 10 nM. Regarding EARQAIRSL (modifications not checked), the inhibition constant Ki with HLA-B0801 (human) [8] came out at 9 nM.

On to GPRLGVRATRKTSER (modifications not checked) [… (SEQ ID NO 2149)], for which, in the assay with HLA-DRB1*0301 (human), the IC50 was 18900 nM. On to RVCEKMALY (modifications not checked), for which the inhibition constant (Ki) in the assay with HLA-A0301 (human) [7] was < 1000 nM. In the assay with HLA-A*0301 (human), this molecule returned a half-maximal inhibitory concentration (IC50) of 53 nM. AAKLSALGL (modifications not checked): the inhibition constant Ki in the assay with HLA-B0702 (human) [9] turned out to be 277 nM. The molecule further came in with an IC50 with HLA-B*0702 (human) of 277 nM. Turning to GHRMAWDMMMNWSPT (modifications not checked) [… (SEQ ID NO 2142)], the IC50 with HLA-DRB1*0301 (human) stood at 919 nM; with HLA-DRB1*0101 (human) [10], 183 nM. In the assay with HLA-Cw0602 (human), ARALAHGVRV (modifications not checked) yielded a Ki of 9880 nM. The molecule FTDNSSPPA (modifications not checked) yielded a concentration for half-maximal inhibition (IC50) with HLA-A*0101 (human) of 10 nM. This molecule also registered a Ki with HLA-A0101 (human) of 10 nM. Consider PTHYVPESDAAARVT (modifications not checked) [… (SEQ ID NO 2193)], for which, in the assay with HLA-DRB1*0301 (human), the IC50 was 4950 nM.

The values above are taken from patent US20060093617A1.
